From patent US20100204147A1, “Methods For Delivering Thymosin Beta 4, Analogues, Isoforms and Other Derivatives” (REGENERX BIOPHARMACEUTICALS, INC., priority 2003, published 2010)

Molecular target: T1, fibrinogen (Homo sapiens, UniProt P02671)
T1 construct: purchased Enzyme Research Laboratories (South Bend, Ind.)
T1 sequence (P02671 20-644 isoform P02671-2 limits assumed): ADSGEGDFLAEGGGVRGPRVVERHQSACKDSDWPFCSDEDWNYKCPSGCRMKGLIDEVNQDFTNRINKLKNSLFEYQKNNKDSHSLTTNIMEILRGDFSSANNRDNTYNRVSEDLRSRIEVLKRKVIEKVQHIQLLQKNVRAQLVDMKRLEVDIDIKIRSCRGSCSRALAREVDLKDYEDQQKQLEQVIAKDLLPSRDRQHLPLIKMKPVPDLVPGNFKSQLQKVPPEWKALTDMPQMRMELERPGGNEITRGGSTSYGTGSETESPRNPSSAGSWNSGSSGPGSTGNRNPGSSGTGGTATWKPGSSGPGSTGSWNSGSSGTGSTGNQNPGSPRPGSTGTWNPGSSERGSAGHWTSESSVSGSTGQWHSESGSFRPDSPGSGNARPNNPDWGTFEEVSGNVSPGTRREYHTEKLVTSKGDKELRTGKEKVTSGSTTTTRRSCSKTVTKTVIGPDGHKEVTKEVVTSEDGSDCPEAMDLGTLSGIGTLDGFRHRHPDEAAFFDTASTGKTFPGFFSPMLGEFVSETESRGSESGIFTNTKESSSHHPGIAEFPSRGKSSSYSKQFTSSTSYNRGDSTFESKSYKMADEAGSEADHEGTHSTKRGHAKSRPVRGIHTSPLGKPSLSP
T1 sequence (P02675 31-491 partner): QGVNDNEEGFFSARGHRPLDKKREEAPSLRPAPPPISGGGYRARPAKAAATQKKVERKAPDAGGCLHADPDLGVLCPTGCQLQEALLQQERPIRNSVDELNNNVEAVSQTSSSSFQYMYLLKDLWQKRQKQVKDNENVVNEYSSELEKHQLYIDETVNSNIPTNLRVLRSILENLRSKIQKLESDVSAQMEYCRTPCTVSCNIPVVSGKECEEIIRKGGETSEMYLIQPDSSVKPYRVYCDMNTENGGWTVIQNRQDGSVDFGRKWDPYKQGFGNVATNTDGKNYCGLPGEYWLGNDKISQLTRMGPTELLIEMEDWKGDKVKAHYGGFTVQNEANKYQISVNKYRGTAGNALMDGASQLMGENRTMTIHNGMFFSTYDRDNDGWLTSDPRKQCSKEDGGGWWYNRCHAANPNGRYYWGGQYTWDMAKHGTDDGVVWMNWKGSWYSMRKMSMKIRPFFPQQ
T1 sequence (P02679 27-437 isoform P02679-2 partner limits assumed): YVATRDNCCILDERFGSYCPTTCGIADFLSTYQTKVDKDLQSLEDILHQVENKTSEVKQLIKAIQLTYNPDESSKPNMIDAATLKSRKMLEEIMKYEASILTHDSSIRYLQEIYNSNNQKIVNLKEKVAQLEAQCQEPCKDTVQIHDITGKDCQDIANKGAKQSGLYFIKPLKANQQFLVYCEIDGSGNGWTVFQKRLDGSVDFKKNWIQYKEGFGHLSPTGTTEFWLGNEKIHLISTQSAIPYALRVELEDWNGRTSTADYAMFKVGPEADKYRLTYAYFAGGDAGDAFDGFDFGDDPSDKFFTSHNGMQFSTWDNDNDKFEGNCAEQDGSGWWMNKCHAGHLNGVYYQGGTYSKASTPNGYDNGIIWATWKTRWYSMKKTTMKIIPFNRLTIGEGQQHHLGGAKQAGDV
Assay: Factor XIIIa-mediated incorporation of FITC-labeled thymosin β4 into fibrinogen (spectrophotometric)
Type: biochemical
Procedure: Reactions of incorporation of FITC-labeled and unlabeled thymosin β4 into fibrinogen and fibrin were performed in Eppendorf tubes containing a mixture of fibrinogen at 3 mg/mL (9 μM) and thymosin β4 or FITC-labeled thymosin β4 at […] (30 μM) in 100 μL TBS with 2.5 mM CaCl2. The reactions were initiated by addition of FXIIIa(Ca) or FXIIIa(Thr) to final concentration of 30 μg/mL. The final concentration of thrombin in the FXIIIa(Thr)-containing mixtures was made at 2.5 NIH u/mL, sufficient to rapidly form fibrin clot which was observed visually. The reactions with FITC-labeled thymosin β4 lasted for 4 hours at 37° C. in the dark and were stopped by heat inactiviation of the enzymes in boiling water for 5 min during fibrinogen and fibrin denatured and precipitated. The pellets were centrifuged and washed 3 times in TBS and then solubilized. The amounts of fibrin(ogen) and FITC-labeled thymosin β4 in the solubilized pellet were determined spectrophotomertrically using absorption molar coefficients E280,1%=15.0 and ε495=72,000 M^−1cm^−1, respectively. To prepare samples with unlabeled thymosin β4 for analysis by SDS-PAGE and Western blot the reaction mixtures at the indicated time were heat-inactivated as above and solubilized by addition of sample buffer (Invitrogen) containing SDS and reducing agent.

Substance: thymosin β4
- degree of incorporation into fibrinogen (fibrinogen 9 μM, thymosin β4 30 μM, factor XIIIa, 4 hours, 37° C.): 0.2 moles per mole
- molar incorporation ratio of thymosin β4 to fibrinogen (physiological concentrations of fibrin(ogen) and factor XIII): 0.2
